Source: paper PMC3949604 (Biochemical pharmacology, 2014)

B1: thioredoxin fusion of CΔ553 (human AhR aa 1-295) (domain or fragment, UniProt P35869 1-295, looked up)
chain: MNSSSANITYASRKRRKPVQKTVKPIPAEGIKSNPSKRHRDRLNTELDRLASLLPFPQDVINKLDKLSVLRLSVSYLRAKSFFDVALKSSPTERNGGQDNCRAANFREGLNLQEGEFLLQALNGFVLVVTTDALVFYASSTIQDYLGFQQSDVIHQSVYELIHTEDRAEFQRQLHWALNPSQCTESGQGIEEATGLPQTVVCYNPDQIPPENSPLMERCFICRLRCLLDNSSGFLAMNFQGKLKYLHGQKKKGKDGSILPPQLALFAIATPLQPPSILEIRTKNFIFRTKHKLDF
B2: thioredoxin fusion of D1 (human AhR aa 84-295) (domain or fragment, UniProt P35869 84-295, looked up)
chain: DVALKSSPTERNGGQDNCRAANFREGLNLQEGEFLLQALNGFVLVVTTDALVFYASSTIQDYLGFQQSDVIHQSVYELIHTEDRAEFQRQLHWALNPSQCTESGQGIEEATGLPQTVVCYNPDQIPPENSPLMERCFICRLRCLLDNSSGFLAMNFQGKLKYLHGQKKKGKDGSILPPQLALFAIATPLQPPSILEIRTKNFIFRTKHKLDF
B3: thioredoxin fusion of D3 (human AhR aa 191-295) (domain or fragment, UniProt P35869 191-295, looked up)
chain: EEATGLPQTVVCYNPDQIPPENSPLMERCFICRLRCLLDNSSGFLAMNFQGKLKYLHGQKKKGKDGSILPPQLALFAIATPLQPPSILEIRTKNFIFRTKHKLDF
B4: thioredoxin fusion of D2 (human AhR aa 84-192) (domain or fragment)
chain: not shown

Target: baculovirus expressed human Arnt (aryl hydrocarbon receptor nuclear translocator) (human, UniProt P27540 1-789)
Test: co-IP

baculovirus expressed human Arnt (aryl hydrocarbon receptor nuclear translocator), sequence (P27540 whole entry): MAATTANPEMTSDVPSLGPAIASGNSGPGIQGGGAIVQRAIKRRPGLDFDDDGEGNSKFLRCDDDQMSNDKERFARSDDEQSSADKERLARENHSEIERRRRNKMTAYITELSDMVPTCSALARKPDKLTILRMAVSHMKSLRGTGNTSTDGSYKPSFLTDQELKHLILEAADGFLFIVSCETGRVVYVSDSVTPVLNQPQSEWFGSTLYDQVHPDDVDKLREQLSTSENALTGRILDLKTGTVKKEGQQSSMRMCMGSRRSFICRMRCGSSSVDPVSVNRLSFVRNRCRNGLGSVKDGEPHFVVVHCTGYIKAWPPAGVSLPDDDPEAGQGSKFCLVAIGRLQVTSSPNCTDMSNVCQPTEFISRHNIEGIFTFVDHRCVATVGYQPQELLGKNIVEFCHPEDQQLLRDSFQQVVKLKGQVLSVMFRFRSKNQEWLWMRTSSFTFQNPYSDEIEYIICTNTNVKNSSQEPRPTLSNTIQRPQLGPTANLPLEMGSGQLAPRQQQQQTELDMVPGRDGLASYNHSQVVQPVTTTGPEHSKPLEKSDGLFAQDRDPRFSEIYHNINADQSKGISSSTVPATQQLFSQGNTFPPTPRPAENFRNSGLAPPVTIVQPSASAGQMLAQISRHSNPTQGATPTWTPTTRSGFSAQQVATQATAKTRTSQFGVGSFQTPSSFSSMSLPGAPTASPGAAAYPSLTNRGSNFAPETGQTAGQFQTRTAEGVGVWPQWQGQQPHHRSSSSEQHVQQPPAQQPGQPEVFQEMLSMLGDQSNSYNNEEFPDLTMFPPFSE

percent of input co-immunoprecipitated	Binder
> 10 % input	B1
~10 % input	B2
~10 % input	B3
~10 % input	B4
